Experimental findings from paper PMC10853775 (Nucleic Acids Research, 2023) are described below.

This data set concerns the molecule itself. Kind of data set: crystal structure.

B1: human nucleoside diphosphate kinase (NDPKb) (enzyme)
chain: ANLERTFIAIKPDGVQRGLVGEIIKRFEQKGFRLVAMKFLRASEEHLKQHYIDLKDRPFFPGLVKYMNSGPVVAMVWEGLNVVKTGRVMLGETNPADSKPGTIRGDFCIQVGRNIIHGSDSVKSAEKEISLWFKPEELVDYKSCAHDWVYE
Usually stoichiometry N stands for a count of units in the complex or per binding partner. With B1, the “stoichiometry N” value stood at 6.
